Data taken from PMC7021776, “Heme binding of transmembrane signaling proteins undergoing regulated intramembrane proteolysis” (Communications Biology, 2020).

B1: MBP-TNFα-NTF(1–76) (domain or fragment, human, UniProt P01375 1-76, looked up)
chain: MSTESMIRDVELAEEALPKKTGGPQGSRRCLFLSLFSFLIVAGATTLFCLLHFGVIGPQREEFPRDLSLISPLAQA
notes: also called TNFα-NTF(1–76) wt; MBP-TNFα(1–76); source: E. coli NEB Express (pMalC5X), membrane fraction solubilised with Triton X-100, purified (amylose); not shown: MBP, N-terminal, kept
B2: TNFα-NTF(1–51) (domain or fragment, human, UniProt P01375 1-51, looked up)
chain: MSTESMIRDVELAEEALPKKTGGPQGSRRCLFLSLFSFLIVAGATTLFCLL
notes: The text names it without MBP; source: E. coli NEB Express (pMalC5X), membrane fraction solubilised with Triton X-100, purified (amylose); not shown: MBP, N-terminal, kept
B3: TNFα-NTF(1–47) (domain or fragment, human, UniProt P01375 1-47, looked up)
chain: MSTESMIRDVELAEEALPKKTGGPQGSRRCLFLSLFSFLIVAGATTL
notes: as for B2

Target: the molecule itself
Assay: SEC; gel filtration of purified MBP fusion proteins, Superose 6 Increase 10/300 GL, 4 °C, TN buffer (50 mM Tris/HCl pH 7.4, 150 mM NaCl) with 0.1% Triton X-100; growth medium with or without δ-aminolevulinic acid

Row | Protein | stoichiometry N | binding result
1 | B1 | 3 | 
2 | B2 |  | binds
3 | B3 | 2 | 
